Source: PMC7864067

Molecular target: PFN2 (endogenous, isoform not told apart) (human (endogenous in HAP1)) (UniProt P35080)
UniProt P35080, sequence (P35080 whole entry, canonical isoform): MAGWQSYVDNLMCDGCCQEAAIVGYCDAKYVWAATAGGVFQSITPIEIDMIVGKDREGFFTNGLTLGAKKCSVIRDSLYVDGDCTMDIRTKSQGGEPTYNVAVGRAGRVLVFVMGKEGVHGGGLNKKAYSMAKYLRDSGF

- actin reacetylation assay in HAP1 NAA80-KO cells, 8-14 h after transfection: Ac-β-actin signal normalised to V5, compared with cells transfected with NAA80-WT, at 14 h: 64%
- actin reacetylation assay in HAP1 NAA80-KO cells, 8-14 h after transfection: Ac-γ-actin signal normalised to V5, compared with cells transfected with NAA80-WT, at 14 h: 62%
Substance: V5-NAA80 (M23L) Δ238-284 (enzyme)
